“Also recorded” adds a separate entry of the source. Where no end group is shown, it is not given here.
Tests used:
[1] = target: T1, UFC1 (Homo sapiens, UniProt Q9Y3C8); experiment: In vitro thioester formation (ufmylation) assay, UFC1~UFM1 conjugate; assay type: biochemical; conditions: for effect on UFC1~UFM1 conjugation (in words): 1 mM ATP, 22 °C, peptides added to UBA5 AD^1–330 where applicable; for UFC1~UFM1 conjugate fraction (in words): ATP reduced to 25 µM, compared to wild type peptide
T1 construct: Full length UFC1, residues 1–167; modified ubiquitin tag (Ub19) with TEV site (N, cleaved yes); made in house; host or cells: E. coli T7 Express
T1 sequence (Q9Y3C8 1-167): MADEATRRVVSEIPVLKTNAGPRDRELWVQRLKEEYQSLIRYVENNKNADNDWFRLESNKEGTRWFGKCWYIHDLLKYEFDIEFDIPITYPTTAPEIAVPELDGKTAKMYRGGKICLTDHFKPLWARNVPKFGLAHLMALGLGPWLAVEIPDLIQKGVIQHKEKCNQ
Protocol: First, we analyzed the effect of the UBA5 C-terminus on UFM1 transfer to UFC1 with an in vitro thioester formation assay (Figure 1B–E).
Ufmylation reaction assays were adopted from work of Xie. Briefly, 70 µM UFM1, 20 µM UFC1 and 20 µM of different UBA5 constructs were mixed in reaction buffer (50 mM HEPES pH = 7.5, 100 mM NaCl, 5 mM MgCl2). After starting the reaction with addition of 1 mM ATP, the reaction mix was incubated at 22 °C for the desired time. To quench the reaction and prepare electrophoretic samples, 1 µL of the reaction mix was added to 99 µL 1x non-reducing SDS loading buffer and frozen in liquid nitrogen. Sample content was visualized by sodium dodecyl sulfate polyacrylamide gel electrophoresis (SDS-PAGE). The transfer to polyvinylidene difluoride (PVDF) membrane was performed via a Trans-Blot® Turbo™ Transfer System (Bio-Rad, München, Germany). After transfer the membrane was blocked with TBST (Tris-buffered saline with Tween20 buffer, 20 mM Tris, 150 mM NaCl and 0.1% TWEEN 20) containing 5% w/v nonfat dry milk for 1 h, followed by α-UFC1 antibody incubation over night at 4 °C (ab189251 abcam, 1:10,000 in TBST containing 5% w/v nonfat dry milk). After washing with TBST the membrane was incubated with secondary antibody (anti-rabbit-HRP) for 1 h at RT and again washed with TBST. Detection was performed by addition of ECL solution. For quantification of UFC1 ufmylation coloc2 software implemented in ImageJ was used.

[2] = target: T1, UFC1; experiment: ITC, UBA5 constructs vs UFC1; assay type: binding; conditions: for Kd / ΔG / −T*ΔS / ΔS / KA*10^−6 / ΔH: ITC, 25 °C; for Kd / ΔH: VP-ITC, peptide ~400 µM titrated into 20–25 µM UFC1, 25 mM HEPES pH 7.5, 100 mM NaCl, single ITC profile; for Kd / ΔS / ΔH: one-site model; for N: ITC stoichiometry; for N / ΔG / −T*ΔS / ΔS / KA*10^−6: peptide vs UFC1; for N / KA*10^−6 / ΔH: ± = fitting error; for ΔS: single profile; for KA*10^−6: value is KA × 10^−6
Excerpt: (§1) To understand how the UBA5 C-terminus participates in the ufmylation cascade, we performed isothermal titration calorimetry (ITC) experiments, in which we titrated UBA5 C-terminal peptides (see Table 1) to the UBA5 AD, UFC1, UFM1 and representative LC3/GABARAP proteins (Figure 2A, Supplementary Figure S2A–D and Table 2).
To investigate if conjugation of UFM1 to the UBA5 catalytic cysteine (C250) affects the UFC1:UBA5 interactions, we prepared full length UBA5 C250K mutant and stably conjugated UFM1 to it as reported before for a number of ubiquitin-specific E2 enzymes. We compared the UFC1 spectra after addition of a twofold molar excess of FL^1–404 and FL^1–404 C250K~UFM1 constructs (Supplementary Figure S5C).
(§2) All proteins and peptides were expressed in E.Coli T7 Express (New England Biolabs GmbH, Frankfurt, Germany) cells in LB or M9 (to obtain ^15N- and ^13C,^15N-labeled polypeptides) media according to the protocol described in [33, 36]. For protein purification, bacterial cell pellets were resuspended in lysis buffer (50 mM Tris-HCl pH = 7.5, 100 mM NaCl, 5% glycerol, 5 mM PIC (protease inhibitor cocktail)) and lysed via sonication (TT13 Sonotrode, 40% amplitude, for 6 × 1 min with a 0.5/0.5-s pulse). Lysates were centrifuged for 45 min at 17,000× g at 4 °C. Supernatants were loaded onto a His Trap Fast Flow 5 mL column (GE Healthcare, München, Germany) equilibrated in loading buffer (50 mM Tris-HCl pH = 8.0, 250 mM NaCl, 1% glycerol, 20 mM imidazole). The column was washed with loading buffer for 5–10 CV and protein was eluted with elution buffer (50 mM Tris-HCl pH = 8, 250 mM NaCl, 1% glycerol, 400 mM imidazole). Simultaneous TEV cleavage (1 mg TEV protease was added to 100 mg peptides/proteins) and buffer exchange to loading buffer via dialysis was performed over night at 4 °C. After reverse IMAC, proteins were concentrated with conical concentrators (Millipore Merck, Darmstadt, Germany) and loaded on a Superdex 10/60 75 or 200 column (GE Healthcare, München, Germany) for further purification and equilibration with ITC/NMR buffer (25 mM HEPES pH = 7.5, 100 mM NaCl). For structural NMR spectroscopy, buffer containing 50 mM Tris-HCl pH = 7.5, 100 mM NaCl was used. Prior to NMR experiments, TCEP and protease inhibitors cocktail were added to the samples to final concentrations 1 and 5 mM, respectively. Purified peptides and protein were concentrated and stored at −80 °C. The protein and peptide concentrations were calculated from the UV absorption at 280 nm by Nanodrop spectrophotometer (Thermo Scientific, Langenselbold, Germany).
(§3) All ITC experiments were performed at 25 °C using a VP-ITC microcalorimeter (Malvern Panalytical Ltd., Malvern, UK). Peptides in concentration of ~400 µM were titrated into 20–25 µM solutions of corresponding binding partner at a stirring speed of 307 rpm. The raw data were corrected on the dilution heat of peptides obtained in independent experiment (titration of the peptide in syringe into the ITC/NMR buffer in the measuring cell). Pre-titration delay was set to 180 s, interval between titration steps was experimentally adjusted to avoid kinetic contribution to the observed heat effects and set to 200 s. A single ITC profile was collected for each type of interaction. The ITC data were analyzed based on a “one-site” binding model with MicroCal ITC software implemented in Origin 7.0.

[3] = target: T2, UFM1 (Homo sapiens, UniProt P61960); experiment: ITC, UBA5 peptides vs UFM1; assay type: binding; conditions: 25 °C; for ΔG / −T*ΔS: vs UFM1; for ΔS: vs UFM1, one-site model, single profile; for KA*10^−6: vs UFM1, value is KA × 10^−6, ± = fitting error
T2 construct: Full length UFM1, residues 2–83; modified ubiquitin tag (Ub19) with TEV site (N, cleaved yes); made in house; host or cells: E. coli T7 Express
T2 sequence (P61960 2-83): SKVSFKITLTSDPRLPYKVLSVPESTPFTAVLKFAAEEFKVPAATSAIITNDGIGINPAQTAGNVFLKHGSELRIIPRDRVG
Excerpt: as §1, §2, §3

[4] = target: T3, GABARAPL2 (Homo sapiens, UniProt P60520); experiment: ITC, UBA5 peptides vs GABARAPL2; assay type: binding; conditions: for affinity increase to GABARAPL2 vs wild type peptide / ΔG / ΔS / −T*ΔS / KA*10^−6: 25 °C; for ΔG / ΔS / −T*ΔS: vs GABARAPL2; for KA*10^−6: vs GABARAPL2, value is KA × 10^−6, ± = fitting error; for affinity change, GABARAPL2: A371 mutants of R1-R2-R3^325–404
T3 construct: modified ubiquitin tag (Ub19) with TEV site (N, cleaved yes); made in house; host or cells: E. coli T7 Express
T3 sequence (P60520 3-116): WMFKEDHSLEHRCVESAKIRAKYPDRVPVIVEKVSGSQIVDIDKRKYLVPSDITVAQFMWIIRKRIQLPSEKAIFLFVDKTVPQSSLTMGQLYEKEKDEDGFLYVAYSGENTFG
Excerpt: as §1, §2, §3

[5] = target: T4, LC3B (Homo sapiens, UniProt Q9GZQ8); experiment: ITC, UBA5 peptides vs LC3B; assay type: binding; conditions: for affinity increase to LC3B vs wild type peptide / ΔG / ΔS / −T*ΔS / KA*10^−6: 25 °C; for ΔG / ΔS / −T*ΔS / KA*10^−6: vs LC3B; for KA*10^−6: value is KA × 10^−6, ± = fitting error; for affinity change, LC3B: A371 mutants of R1-R2-R3^325–404
T4 construct: LC3B, residues 5–120; ubiquitin tag Ub3 (vector pETm60_Ub3) (cleaved yes); made in house; host or cells: E. coli T7 Express
Excerpt: as §1, §2, §3

Substance	Kd [2]	effect on UFC1~UFM1 conjugation (in words) [1]	ΔG [3]	−T*ΔS [3]	ΔS [3]	KA*10^−6 [3]	affinity increase to GABARAPL2 vs wild type peptide [4]	ΔG [4]	ΔS [4]	−T*ΔS [4]	KA*10^−6 [4]	affinity change, GABARAPL2 [4]	UFC1~UFM1 conjugate fraction (in words) [1]	affinity increase to LC3B vs wild type peptide [5]	ΔG [5]	ΔS [5]	−T*ΔS [5]	KA*10^−6 [5]	affinity change, LC3B [5]	N [2]	other results
GABARAPL2: GABARAPL2, residues 3–116	–	–	–	–	–	–	–	–	–	–	–	–	–	–	–	–	–	–	–	–	effect of GABARAPL2 on UFC1~UFM1 conjugation ([1]; high concentration of GABARAPL2 added to ufmylation assay): could efficiently prohibit the UFC1~UFM1 conjugation
GAMEDSGESLEDLMAKMKNM [R3^388–404]	10000 nM	–	–	–	–	–	–	–	–	–	–	–	–	–	–	–	–	–	–	–	–
GAMGPVPDLPEGITVAYTIPKKQEDSVTELTVEDSGESLEDLMAKMKNM [R2-R3^359–404]	2700 nM	–	–	–	–	–	–	–	–	–	–	–	–	–	–	–	–	–	–	–	–
H-GAMGPVPDLPEGITVAYTIPK-OH [R2^359–376]	–	virtually no effect	–	–	–	–	–	–	–	–	–	–	–	–	–	–	–	–	–	–	interaction / affinity to UFC1 (in words) ([2]; ITC and NMR titration, listed as R2): no direct interactions; also recorded: does not interact with UFC1
R1-R2-R3^325–404 A371E: UBA5 C-terminal part with A371E mutant (res. 325–404)	1600 nM	nearly the same trans-thioesterification efficiency compared to wild type	-6.86 kcal/mol	4.56 kcal/mol	−15.3 cal mol^−1 K^−1	0.11 ± 0.01 M^−1	~ 3 fold	-9.95 kcal/mol	7.23 cal mol^−1 K^−1	-2.16 kcal/mol	19.60 ± 2.57 M^−1	some increase in affinity	reduction of the UFC1~UFM1 conjugate fraction	~ 7 fold	-8.49 kcal/mol	15.3 cal mol^−1 K^−1	-4.56 kcal/mol	1.66 ± 0.12 M^−1	some increase in affinity	1.03 ± 0.005	effect on UFC1~UFM1 conjugation (in words) ([1]; listed as A371E): did not affect significantly the formation of the UFC1~UFM1 conjugate; ΔG [2]: -7.88 kcal/mol; −T*ΔS [2]: -0.11 kcal/mol; ΔS [2]: 0.36 cal mol^−1 K^−1; KA*10^−6 [2]: 0.60 ± 0.02 M^−1; ΔH [2]: -7.78 ± 0.05 kcal/mol
R1-R2-R3^325–404 A371T: UBA5 C-terminal part with A371T mutant (res. 325–404)	1800 nM	nearly the same trans-thioesterification efficiency compared to wild type	-7.02 kcal/mol	3.96 kcal/mol	−13.3 cal mol^−1 K^−1	0.14 ± 0.01 M^−1	~ 3 fold	-9.89 kcal/mol	7.76 cal mol^−1 K^−1	-2.31 kcal/mol	17.90 ± 3.75 M^−1	some increase in affinity	reduction of the UFC1~UFM1 conjugate fraction	~ 3 fold	-8.02 kcal/mol	14.3 cal mol^−1 K^−1	-4.26 kcal/mol	0.76 ± 0.04 M^−1	some increase in affinity	1.03 ± 0.008	effect on UFC1~UFM1 conjugation (in words) ([1]; listed as A371T): did not affect significantly the formation of the UFC1~UFM1 conjugate; ΔG [2]: -7.82 kcal/mol; −T*ΔS [2]: 0.06 kcal/mol; ΔS [2]: −0.19 cal mol^−1 K^−1; KA*10^−6 [2]: 0.54 ± 0.03 M^−1; ΔH [2]: -7.88 ± 0.08 kcal/mol

Source: paper PMC8304084, “A Concerted Action of UBA5 C-Terminal Unstructured Regions Is Important for Transfer of Activated UFM1 to UFC1” (International Journal of Molecular Sciences, 2021)
